The values below come from patent publication US9732156B2, “Methods of treating rheumatoid arthritis using antibodies to matrix metalloproteinase 9” (Gilead Biologics, Inc., priority 2012, dated 2017).

Data set [1] has as its system UC. The note with it: cited from earlier work.
In data set [2] the test system is DSS-induced colitis. The data set is described as follows: DSS-induced colitis model, treatment of established disease (Example 4). The data set is classed as in vivo, mouse. Particulars: for reduction of the incidence of diarrhea: AUC, did not reach statistical significance; for mean endoscopy score: Day 14 (and Day 10), vs Vehicle and AC-1, AB0046 30 mg/kg IP, ENBREL 10 mg/kg IP; for histopathology: inflammation, edema, mucosal necrosis: colons at termination, compared to vehicle; for MMP9 expression in colon by IHC: three colons per group. The source says: The dextran sodium sulfate (DSS)-induced model of colitis is an accepted model for evaluation of inflammatory bowel disease therapeutics. In this model, oral administration of DSS to mice or rats results in damage to the colonic mucosa. Animals receiving DSS develop bloody diarrhea and lose weight. The inflammation and tissue degradation observed in this model is restricted to the mucosa and generally affects the entire colon. […] The localization of disease and the pathology observed in this model is considered to be reminiscent of human ulcerative colitis (UC), including similar inflammatory cell infiltrate, ulceration, and crypt abscesses.
AB0046 was used in the DSS colitis model (in a 14-day treatment model). Treatment began after 5 days of oral exposure to 3% DSS in drinking water, according to the following experimental design: disease induction with 3% DSS was carried out beginning at day 0 through day 5, with treatment beginning at day 6 (treatment details for animals in groups 1-5 given in Table 2, below); animals were sacrificed at day 14. Etanercept (marketed under the trade name ENBREL®) was used as a reference compound for the therapeutic effect of anti-TNFα therapy in this model. AC-1, an irrelevant antibody of matched isotype (IgG1), was used as a control.
The course of disease was evaluated by video endoscopy (at days 6, 10, and 14), animal weight measurements, observation of stool consistency, and post-study histopathology analysis of colons.
Video endoscopy of the lower colon was performed in a blinded fashion using a small animal endoscope; colitis was scored visually on a scale of 1-4 based on the degree of ulceration, friability, and vascularity present in the tissue. Each mouse was assigned a single score corresponding to the most severe damage observed throughout the entire length of the colon examined.
At study termination, the majority of the distal colon was excised from each animal, formalin-fixed, then embedded in paraffin and sectioned for histology. Slides were stained with hematoxylin and eosin and examined by a board-certified veterinary pathologist blinded as to treatment groups. Tissues were scored for inflammation, edema, and mucosal necrosis according to the scoring scale of 1-4 for each parameter. Sum pathology scores were calculated by summing the three individual parameter score means (inflammation, edema and necrosis).
Body weight and the incidence of diarrhea were recorded daily over the course of the study. The evaluation of body weight changes was performed by calculating the area under the curve (AUC) with the trapezoidal rule method; a similar calculation of AUC for stool consistency was performed by assigning incidence of diarrhea a score of 100 and lack of diarrhea a score of 0.
A trend for reduction of systemic disease-associated cytokines by AB0046 was observed. […] Serum MMP-9 levels were not induced (i.e., no difference between no DSS and vehicle groups; interference by drug antibody cannot be ruled out for MMP9 serum level measurements).

Data set [3] has as its system collagen-induced arthritis. The data set can be described thus: Collagen-induced arthritis (CIA) rat model of established disease. Particulars: terminal serum, ELISA. The class given is in vivo. The procedure: (§1) This example provides additional characterizations of the animals in example 7 that were treated with either vehicle, AB0041 (in the rat model) or AB0046 (in the mouse model) at 2, 10, or 50 mg/Kg, Enbrel at 10 mg/Kg, or methotrexate (MTX) at 0.5 mg/Kg.
(§2) In addition to clinical scoring in Table 6 that was conducted in example 7, paw swelling, ankle diameter and body weights of the treated animals were measured. The measurements were conducted once a week before randomization and three times a week thereafter.
In addition, hind limbs were examined microscopically for soft-tissue changes (edema, tissue/vessel necrosis, inflammatory cell infiltration, and fibroplasias) and cartilage and bone changes (cartilage erosion, bone erosion, periosteal bone formation, synovitis, pannus formation, and joint destruction). […] The severity scores were based on global changes in each limb.
For anti-TNF-alpha scoring, the entire region of the limb anterior to the tarsal-metatarsal joint was scored. Anti-CD68 staining was evaluated using 3-4 images per limb of synovial membranes in the joints formed by the talus bone, with the scores of each membrane averaged and the value assigned as the overall inflammation score. […] Also, MMP9-expressing cells were identified as osteoclasts and cells of the monocyte/macrophage lineage.
(§3) Further, serum panel analyses of terminal serum samples were characterized using ELISA. […] AB0046 titers were measured in terminal serum samples.

Data set [4] deals with Lewis rats. Particulars: rat, in vivo.
Description: AB0041 was evaluated for safety in Lewis rats in comparison to the pan-MMP inhibitor, Marimastat, in a 28-day study.
Six rats per group were intravenously administered twice per week with either AB0041 at 50 mg/kg or Vehicle-A (10 mM sodium phosphate, pH 6.5, 140 mM sodium chloride, 0.01% Tween20). In addition, six rats per group were treated with Marimastat or Vehicle-M (50% DMSO/50% water) through a surgically implanted subcutaneous Alzet pump (Alzet, Cupertino, Calif.), which delivered at a rate of 2.5 μl/hour for a period of 28 days. The Marimastat release rate was between 6.8 to 5.7 mg/kg/day.
Animals were observed and scored daily for signs of MSS, such as reluctance to move and avoidance of the use of the hind feet. The following system was used to score resting posture, gait and willingness to move: resting posture was scored as 0 (normal), 1 (resting on one foot) or 2 (resting on neither one foot nor two feet). Gait was scored as either 0 (normal), 1 (avoids use of one hind foot) or 2 (avoids use of both hind feet). Willingness-to-move upon stimulation was scored as either 0 (normal movement), 1 (somewhat reluctant to move), 2 (moderately reluctant to move) or 3 (very reluctant to move). In addition, the body weights were recorded twice weekly.
Total scores were calculated as the sum of gait score, resting posture score and willingness-to-move score for each animal. Mean total scores per group were calculated as the average of the total scores from all individual animals per group per day.
Serum was collected from all rats on one day before and days 1, 7, 10, 14, 17, 21, 24, 28 post administration. Serum was centrifuged at 10,000×g for 10 minutes and collected for storage at −20° C. Serum was subject to multianalyte serum protein analysis (RodentMAPv2.0, IDEXX Laboratories).
Tissues and limbs from the rats were harvested and fixed in 10% neutral buffered formalin for histopathologic analysis using hematoxylin and eosin (H&E).
In data set [5] the test system is DSS-induced colitis. The data set is described as follows: DSS colitis model, prophylactic treatment (Example 5). The class given is in vivo, mouse. As to the method: The efficacy of AB0046 in a prophylactic setting was assessed and compared with reference agent Prednisolone. The indicated treatment was given at day −1, with the indicated dosing schedules. Induction of disease with 3% DSS was initiated at day 0 and was as described above. Animals were sacrificed at day 14.

In data set [6] the test system is collagen-induced arthritis. The data set can be described thus: CIA mouse model of rheumatoid arthritis. The class given is in vivo. As to the method: as §1, §2
In addition, hind limbs were examined microscopically for soft-tissue changes (edema, tissue/vessel necrosis, inflammatory cell infiltration, and fibroplasias) and cartilage and bone changes (cartilage erosion, bone erosion, periosteal bone formation, synovitis, pannus formation, and joint destruction). A standard severity score was used: 0=no significant change, 1=minimal, 2=mild, 3=moderate and 4=severe. The severity scores were based on global changes in each limb.
as §3

A short description of data set [7]: Antibody titers in serum of the CIA study. The class given is in vivo, mouse. As to the method:
as §3

Data set [8] addresses T1, MMP9 (Homo sapiens, UniProt P14780). The data set can be described thus: Comparison of binding and inhibitory properties of anti-MMP9 antibodies. The note with it: AB0045 compared with AB0041.
Target sequence in this assay (P14780 94-707, species assumed): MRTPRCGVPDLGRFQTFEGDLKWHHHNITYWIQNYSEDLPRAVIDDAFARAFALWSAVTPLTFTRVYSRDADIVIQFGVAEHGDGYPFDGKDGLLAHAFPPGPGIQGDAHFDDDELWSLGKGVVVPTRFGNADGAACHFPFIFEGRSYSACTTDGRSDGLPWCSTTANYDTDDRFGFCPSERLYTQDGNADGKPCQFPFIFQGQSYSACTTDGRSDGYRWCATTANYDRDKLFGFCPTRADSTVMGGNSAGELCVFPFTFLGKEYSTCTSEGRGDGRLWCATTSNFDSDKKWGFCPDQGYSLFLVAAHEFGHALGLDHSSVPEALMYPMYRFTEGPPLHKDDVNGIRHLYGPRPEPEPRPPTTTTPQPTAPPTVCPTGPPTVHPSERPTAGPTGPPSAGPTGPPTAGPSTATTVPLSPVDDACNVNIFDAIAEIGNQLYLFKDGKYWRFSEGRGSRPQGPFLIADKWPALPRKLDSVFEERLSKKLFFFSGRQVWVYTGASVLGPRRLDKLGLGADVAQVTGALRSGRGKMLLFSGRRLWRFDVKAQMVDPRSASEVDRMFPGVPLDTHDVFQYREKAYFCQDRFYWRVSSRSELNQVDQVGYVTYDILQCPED
The subject of data set [9] is CD4+ T cell. The data set can be described thus: EpiScreen ex vivo human T cell activation assay (immunogenicity). The class given is cell-based. The note with it: CD4+ T cell response, 20 healthy donors of various HLA haplotypes. The procedure: The potential clinical immunogenicity of the chimeric MMP9 antibody AB0041 and the humanized MMP9 antibody AB0045 was assessed. An ex vivo human T cell activation assay, the EpiScreen (Antitope, Ltd., Cambridge, UK) was used. The T cell activation in the EpiScreen assay has been correlated to the antibody/protein therapeutic responses in patients. The response of CD4+ T cell in 20 healthy donors, representing a variety of HLA haplotypes, was examined. […] A positive control of KLH induced a response in 95% of the donors, with a magnitude of 6.34+/−2.77 (mean+/−standard deviation).

Data set [10] concerns the target T1, MMP9. The data set can be described thus: IHC binding of AB0045 in UC patient colon tissue. Set-up: from tissue; host or cells: colon tissue (biopsies) of human ulcerative colitis patients. The procedure: Biopsy samples from human patients with ulcerative colitis (UC) and healthy individuals were examined by immunohistochemistry (IHC) using the MMP9-specific antibodies. Antibodies against myeloperoxidase (MPO, a neutrophil marker; Wirtz 2007), collagen IV (COLIV, basement membranes) and CD31 (endothelial cells) were used to assess disease severity and tissue infrastructure. Staining patterns of TIMP1 and MMP2 also were examined. PMK2 (a macrophage marker) also was assessed.
Target sequence in this assay (P14780 94-707): as the sequence (P14780 94-707, species assumed) above

For “Infliximab: chimeric therapeutic anti-TNF-alpha antibody Remicade (infliximab)”, in data set [1], the “patients achieving long-term remission completely free of corticosteroids” value is 26%; the “patients achieving remission by week 8 and remaining in remission through 54 weeks” value is 20%; the “patients failing to maintain response over 30 or 54 weeks” value was “approximately 60%”.
ENBREL [reference compound]: in data set [2], the “reduction of the incidence of diarrhea” value was “similar”; the mean endoscopy score entry is recorded as “significant improvement in endoscopy scores”; the “histopathology: inflammation, edema, mucosal necrosis” value is recorded as “significantly reduced all three aspects of disease pathology”; the “MMP9 expression in colon by IHC” value is on record as “Reduction of MMP9”. Also, the “serum markers (TIMP-1, GM-CSF, MIP-2, MIP-1β, M-CSF-1, OSM, CXCL10, MCP-5, IL-12p70, INF-γ, IL-12, IL-7)” value in [3] was “No reduction of serum markers”.
With `CNC(=O)[C@@H](NC(=O)[C@H](CC(C)C)[C@H](O)C(=O)NO)C(C)(C)C` [Marimastat], in data set [4] (Lewis, 18 day), the “average daily total MSS score” value was “above 4.0”. In addition, the “average MSS score” value in data set [4] (Lewis, 25 day) is recorded as 5.8. Moreover, in data set [4], the “H&E staining of hind knee joints” value was “histopathological evidence of fibroplasia was seen”; the “fibrosis and synovitis in limbs” value was “Fibrosis and synovitis were observed”; the “rats with slight limping, avoidance of one hind foot (gait score=1)” value is given as “five”; the severity of fibrosis entry is reported as “mild to severe”. Moreover, the severity of synovitis entry in data set [4] was “mild”.
Take `CN(Cc1cnc2nc(N)nc(N)c2n1)c1ccc(C(=O)N[C@@H](CCC(=O)O)C(=O)O)cc1` [methotrexate, reference compound]: the “serum markers (TIMP-1, GM-CSF, MIP-2, MIP-1β, M-CSF-1, OSM, CXCL10, MCP-5, IL-12p70, INF-γ, IL-12, IL-7)” value in data set [3] is reported as “consistent increase in these markers”.

B1: AB0046: mouse anti-mouse MMP9 surrogate antibody, kappa light chain (SEQ ID NO: 45), IgG1 heavy chain (SEQ ID NO: 46) (antibody, listed as Mus musculus)
heavy: MGWSSIILFLVATATGVHSQVQLQQPGSVLVRPGASVKLSCTASGYTFTSYWMNWVKQRPGQGLEWIGEIYPISGRTNYNEKFKVKATLTVDTSSSTAYMDLNSLTSEDSAVYYCARSRANWDDYWGQGTTLTVSSAKTTPPSVYPLAPGSAAQTNSMVTLGCLVKGYFPEPVTVTWNSGSLSSGVHTFPAVLQSDLYTLSSSVTVPSSTWPSETVTCNVAHPASSTKVDKKIVPRDCGCKPCICTVPEVSSVFIFPPKPKDVLTITLTPKVTCVVVDISKDDPEVQFSWFVDDVEVHTAQTQPREEQFNSTFRSVSELPIMHQDWLNGKEFKCRVNSAAFPAPIEKTISKTKGRPKAPQVYTIPPPKEQMAKDKVSLTCMITDFFPEDITVEWQWNGQPAENYKNTQPIMDTDGSYFVYSKLNVQKSNWEAGNTFTCSVLHEGLHNHHTEKSLSHSPGK
light: MSSAQFLGLLLLCFQGTRCDIQMTQTTSSLSASLGDRVTISCSASQGISNYLNWYQQKPDGTFKLLIYYTSILHSGVPSRFSGSGSGTDYSLTISNLEPEDIATYYCQQYGWLPRTFGGGTKLEIKRADAAPTVSIFPPSSEQLTSGGASVVCFLNNFYPKDINVKWKIDGSERQNGVLNSWTDQDSKDSTYSMSSTLTLTKDEYERHNSYTCEATHKTSTSPIVKSFNRNEC
modifications: CHAIN (1)...(460) AB0046 IgG1 heavy chain; CHAIN (1)...(233) AB0046 kappa light chain
With B1, in [2], the “reduction of the incidence of diarrhea” value is listed as “about 30%”; the mean endoscopy score entry is “significant improvement in mean endoscopy scores”; the “histopathology: inflammation, edema, mucosal necrosis” value was “significantly reduced all three aspects of disease pathology”; the “MMP9 expression in colon by IHC” value is reported as “reduction in MMP9 expression”. The “disease-associated increases in serum MCP-1, MCP-3 and eotaxin” value in data set [2] (terminal serum) was “reduced”. Also, the “serum mediators KC/GRO, CXCL10, MPO, LIF, MIP-2, MCP-5” value in data set [2] (terminal serum, multianalyte ELISA) is reported as “systemic reduction”. The “serum IL-17A” value in data set [2] (terminal serum, near lower level of quantification) is reported as “trend for a reduction”. For the same molecule, in data set [2] (terminal serum, not distinguished from AC-1 isotype control), the “serum IL-6” value is reported as “reduction”. In addition, the “body weight loss (AUC)” value in data set [2] (vs AC-1 isotype control or vehicle) was “significant protection against body weight loss”. Besides, the endoscopic evaluation result in data set [5] (Day 10, 30 mg/kg IP from day −1) is “efficacy of AB0046 prophylactic treatment was observed”. Also, in [5] (prophylactic administration), the incidence of diarrhea result is recorded as “reduced the incidence of diarrhea”. The “inflammation, edema, necrosis and pathology sum score” value in data set [5] (study termination) is “reduced inflammation, edema, and necrosis”. Moreover, the “soft tissue disease, joint damage and destruction (histology)” value in data set [6] (50 mg/kg) was “reduced all measures of soft tissue diseases, joint damage and destruction”. Also, the “qualitative and quantitative measurements of clinical disease (paw swelling, ankle diameter, body weight)” value in [6] (all doses (2, 10, 50 mg/Kg)) is listed as “significant reversal/mitigation”. The “serum markers (KC/GRO, MIP-2, GCP-2, lymphotactin, MCP-1, MCP-3, CXCL-10, OSM, MIP-1β, MIP-1γ, Apo A-1)” value in data set [6] (terminal serum, ELISA) is given as “statistically significant reduction”. Besides, the “antibody titer in serum” value in data set [7] (2 mg/kg dose level) is “not detectable”. In addition, the “antibody titer in terminal serum” value in data set [7] (dosing regimens of 10 and 50 mg/kg) is on record as “measurable drug levels”.

B2: AB0045: humanized variant anti-MMP9 antibody, modified IgG4 (S241P), heavy chain variant VH3 (SEQ ID NO: 7), light chain Vk4 (SEQ ID NO: 12) (antibody, V domains shown)
VH: QVQLQESGPGLVKPSETLSLTCTVSGFSLLSYGVHWVRQPPGKGLEWLGVIWTGGTTNYNSALMSRFTISKDDSKNTVYLKMNSLKTEDTAIYYCARYYYGMDYWGQGTLVTVSS
VL: DIQMTQSPSSLSASVGDRVTITCKASQDVRNTVAWYQQKPGKAPKLLIYSSSYRNTGVPDRFSGSGSGTDFTLTISSLQAEDVAVYYCQQHYITPYTFGGGTKVEIK
modifications: modified IgG4 S241P constant region
B2: in data set [8], the “binding and inhibitory properties” value was “equivalent binding and inhibitory properties”. Further, the “donors in which a response was induced” value in data set [9] is reported as “did not induce response in any of the donors”. The “binding to MMP9 by IHC” value in [10] is listed as “bound to MMP9 in UC patient colon tissue”.
